The target in series [1] is T1, PTB RRM1 WT (human, UniProt P26599-1 41-163). Put plainly: NMR; docked alpha3 66%; ITC (30 C) and NMR (40 C): 20 mM NaCl, 10 mM NaH2PO4 pH 6.5. EMSA: 20 mM NaH2PO4 pH 7.2, 100 mM NaCl, 5 mM MgCl2, 5% glycerol, 1 mM DTT, 50 ug/ml yeast tRNA, 40 ug/ml BSA, room temperature. The note with it: protein: recombinant; hairpin, loop UCUGU. (Mobility shift assays separate free from complexed probe on a gel.)

The target in series [2] is T1, PTB RRM1 WT. Nature of the series: NMR; 45 C; modest shift changes; ITC (30 C) and NMR (40 C): 20 mM NaCl, 10 mM NaH2PO4 pH 6.5. EMSA: 20 mM NaH2PO4 pH 7.2, 100 mM NaCl, 5 mM MgCl2, 5% glycerol, 1 mM DTT, 50 ug/ml yeast tRNA, 40 ug/ml BSA, room temperature. The note with it: protein: recombinant; single strand.
For series [3], the target named is T1, PTB RRM1 WT. Put plainly: NMR; docked alpha3 79%; ITC (30 C) and NMR (40 C): 20 mM NaCl, 10 mM NaH2PO4 pH 6.5. EMSA: 20 mM NaH2PO4 pH 7.2, 100 mM NaCl, 5 mM MgCl2, 5% glycerol, 1 mM DTT, 50 ug/ml yeast tRNA, 40 ug/ml BSA, room temperature. As to conditions: protein: recombinant; hairpin, loop GCUUU.
In series [4] the target is T1, PTB RRM1 WT. Put plainly: NMR; docked alpha3 49%; ITC (30 C) and NMR (40 C): 20 mM NaCl, 10 mM NaH2PO4 pH 6.5. EMSA: 20 mM NaH2PO4 pH 7.2, 100 mM NaCl, 5 mM MgCl2, 5% glycerol, 1 mM DTT, 50 ug/ml yeast tRNA, 40 ug/ml BSA, room temperature. The note with it: protein: recombinant; hairpin, UUCG tetraloop.
Series [5] concerns the target T1, PTB RRM1 WT. Put plainly: NMR; alpha3 formed as with SL UCUUU; ITC (30 C) and NMR (40 C): 20 mM NaCl, 10 mM NaH2PO4 pH 6.5. EMSA: 20 mM NaH2PO4 pH 7.2, 100 mM NaCl, 5 mM MgCl2, 5% glycerol, 1 mM DTT, 50 ug/ml yeast tRNA, 40 ug/ml BSA, room temperature. As to conditions: protein: recombinant; hairpin, 9-nt loop with UUCUU at its 5' end.
The target in series [6] is T1, PTB RRM1 WT. Put plainly: NMR; docked alpha3 55%; ITC (30 C) and NMR (40 C): 20 mM NaCl, 10 mM NaH2PO4 pH 6.5. EMSA: 20 mM NaH2PO4 pH 7.2, 100 mM NaCl, 5 mM MgCl2, 5% glycerol, 1 mM DTT, 50 ug/ml yeast tRNA, 40 ug/ml BSA, room temperature. The note with it: protein: recombinant; hairpin, loop UCGUU.
The target of series [7] is T1, PTB RRM1 WT. Put plainly: ITC; Kd1, two independent site model, 30 C; ITC (30 C) and NMR (40 C): 20 mM NaCl, 10 mM NaH2PO4 pH 6.5. EMSA: 20 mM NaH2PO4 pH 7.2, 100 mM NaCl, 5 mM MgCl2, 5% glycerol, 1 mM DTT, 50 ug/ml yeast tRNA, 40 ug/ml BSA, room temperature. As to conditions: protein: recombinant; label: 13C/15N in some NMR samples; hairpin, 5-nt loop UCUUU (positions 10-14).

Another series concerns the target PTB RRM1 N143G/R146G (human, UniProt P26599-1 41-163, N143G;R146G). Put plainly: ITC; Kd1; up to 3-fold; ITC (30 C) and NMR (40 C): 20 mM NaCl, 10 mM NaH2PO4 pH 6.5. EMSA: 20 mM NaH2PO4 pH 7.2, 100 mM NaCl, 5 mM MgCl2, 5% glycerol, 1 mM DTT, 50 ug/ml yeast tRNA, 40 ug/ml BSA, room temperature. The note with it: protein: recombinant; tags: intein tag removed; label: 13C/15N in some NMR samples; hairpin, 5-nt loop UCUUU (positions 10-14). (In ITC the heat of successive injections is recorded.)

For another series, the target named is PTB RRM1 K94A (human, UniProt P26599-1 41-163, K94A). Nature of the series: ITC; Kd1; almost 7-fold; ITC (30 C) and NMR (40 C): 20 mM NaCl, 10 mM NaH2PO4 pH 6.5. EMSA: 20 mM NaH2PO4 pH 7.2, 100 mM NaCl, 5 mM MgCl2, 5% glycerol, 1 mM DTT, 50 ug/ml yeast tRNA, 40 ug/ml BSA, room temperature. As to conditions: protein: recombinant; tags: intein tag removed; label: 13C/15N in some NMR samples; hairpin, 5-nt loop UCUUU (positions 10-14).

The next series concerns the target PTB RRM1 L151G (human, UniProt P26599-1 41-163, L151G). Nature of the series: NMR; alpha3 does not fold; ITC (30 C) and NMR (40 C): 20 mM NaCl, 10 mM NaH2PO4 pH 6.5. EMSA: 20 mM NaH2PO4 pH 7.2, 100 mM NaCl, 5 mM MgCl2, 5% glycerol, 1 mM DTT, 50 ug/ml yeast tRNA, 40 ug/ml BSA, room temperature. The note with it: protein: recombinant; tags: intein tag removed; label: 13C/15N in some NMR samples; hairpin, 5-nt loop UCUUU (positions 10-14).

The target of another series is PTB RRM1 P142G (human, UniProt P26599-1 41-163, P142G). Put plainly: NMR; alpha3 helicity increases on binding; ITC (30 C) and NMR (40 C): 20 mM NaCl, 10 mM NaH2PO4 pH 6.5. EMSA: 20 mM NaH2PO4 pH 7.2, 100 mM NaCl, 5 mM MgCl2, 5% glycerol, 1 mM DTT, 50 ug/ml yeast tRNA, 40 ug/ml BSA, room temperature. The note with it: protein: recombinant; tags: intein tag removed; label: 13C/15N in some NMR samples; hairpin, 5-nt loop UCUUU (positions 10-14).

For series [8], the target named is T1, PTB RRM1 WT. Put plainly: NMR; docked alpha3 78%; ITC (30 C) and NMR (40 C): 20 mM NaCl, 10 mM NaH2PO4 pH 6.5. EMSA: 20 mM NaH2PO4 pH 7.2, 100 mM NaCl, 5 mM MgCl2, 5% glycerol, 1 mM DTT, 50 ug/ml yeast tRNA, 40 ug/ml BSA, room temperature. The note with it: protein: recombinant; hairpin, loop UCUU.

This is an account of results in paper PMC7192611, “A transient α-helix in the N-terminal RNA recognition motif of polypyrimidine tract binding protein senses RNA secondary structure”.

T1 sequence (P26599 41-163): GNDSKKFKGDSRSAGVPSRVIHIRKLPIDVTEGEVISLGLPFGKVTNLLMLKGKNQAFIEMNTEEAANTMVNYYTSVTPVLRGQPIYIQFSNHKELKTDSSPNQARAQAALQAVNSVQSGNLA
PTB RRM1 L151G, sequence (P26599 41-163 L151G): as the sequence (P26599 41-163) above, with L111G counted along it
PTB RRM1 P142G, sequence (P26599 41-163 P142G): as the sequence (P26599 41-163) above, with P102G counted along it
PTB RRM1 N143G/R146G, sequence (P26599 41-163 N143G/R146G): as the sequence (P26599 41-163) above, with N103G, R106G counted along it
PTB RRM1 K94A, sequence (P26599 41-163 K94A): as the sequence (P26599 41-163) above, with K54A counted along it

B1: SL UCUGU (structured_RNA)
RNA: GGGACCUGGUCUGUCCAGGUCCC
With B1, the binding result with PTB RRM1 WT [1] is “binds”.

B2: CUCUCU ssRNA (ssRNA)
RNA: CUCUCU
Take B2: the binding result in the series with PTB RRM1 WT [2] is recorded as “binds”.

B3: SL GCUUU (structured_RNA)
RNA: GGGACCUGGGCUUUCCAGGUCCC
On to B3, for which the binding result in the series with PTB RRM1 WT [3] is recorded as “binds”.

B4: SL UUCG (structured_RNA)
RNA: GGGACCUGGUUCGCCAGGUCCC
For the molecule B4, the binding result with PTB RRM1 WT [4] is “binds”.

B5: hsa-mir-136 stem-loop (structured_RNA)
RNA: GAUGGAUUCUUAUGCUCCAUC
Turning to B5, in the series with PTB RRM1 WT [5], the binding result is listed as “binds”.

B6: SL UCGUU (structured_RNA)
RNA: GGGACCUGGUCGUUCCAGGUCCC
As to B6, in the series with PTB RRM1 WT [6], the binding result is recorded as “binds”.

B7: SL UCUUU (structured_RNA)
RNA: GGGACCUGGUCUUUCCAGGUCCC
The term Kd denotes a measure of binding affinity in units of concentration. Regarding B7, the Kd in the series with PTB RRM1 WT [7] is 100 ± 20 nM. In addition, the binding signal in the series with PTB RRM1 N143G/R146G is ~3 fold loss of affinity vs WT; with PTB RRM1 K94A, ~7 fold loss of affinity vs WT. Besides, the binding result with PTB RRM1 L151G and with PTB RRM1 P142G was “binds” in each case.

B8: SL UCUU_ (structured_RNA)
RNA: GGGACCUGGUCUUCCAGGUCCC
Take B8: in the series with PTB RRM1 WT [8], the binding result was “binds”.
